Measured values: US20230038866
Where two headings read alike, the source gives them in different places.

How the values were obtained:
[1] = target: membrane-bound immunoglobulin heavy mu chain (B-cell receptor, IgM) on Ramos lymphoma cells (Homo sapiens) (UniProt P01871); conditions: confocal staining of Ramos xenograft brain slices, 1.0 uM, 10 min on ice, 6 mM MgCl2, 1.2 mM CaCl2, PBS, yeast tRNA; U251 glioma 0.81% and normal brain 0.80% …
[2] = target: membrane-bound immunoglobulin heavy mu chain (B-cell receptor, IgM) on Ramos lymphoma cells (Homo sapiens) (UniProt P01871); conditions: confocal staining of Ramos xenograft brain slices, 1.0 uM, 10 min; target not purified

UniProt P01871, sequence (P01871 1-450): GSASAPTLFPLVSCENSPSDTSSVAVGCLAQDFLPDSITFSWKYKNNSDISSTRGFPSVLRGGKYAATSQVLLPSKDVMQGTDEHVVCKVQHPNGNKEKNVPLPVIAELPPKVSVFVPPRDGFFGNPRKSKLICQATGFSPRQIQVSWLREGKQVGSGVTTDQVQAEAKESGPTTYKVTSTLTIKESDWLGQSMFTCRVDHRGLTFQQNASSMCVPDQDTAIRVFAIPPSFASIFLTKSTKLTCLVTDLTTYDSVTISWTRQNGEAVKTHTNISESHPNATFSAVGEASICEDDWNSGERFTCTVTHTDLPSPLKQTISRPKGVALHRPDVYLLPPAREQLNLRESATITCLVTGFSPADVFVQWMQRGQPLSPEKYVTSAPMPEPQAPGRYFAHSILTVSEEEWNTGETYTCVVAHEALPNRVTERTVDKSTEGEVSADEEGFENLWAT

| Substance | binding (% cells labeled) [1] | binding (% cells labeled) [2] |
| --- | --- | --- |
| AGGAGGATAGTTCGGTGGCTGTTCAGGGTCTCCTCCT [TD05-488] | 76.7 |  |
| nonspecific Alexa Fluor 488 aptamer |  | 2.71 |
